{"source": "patent US20190119394A1", "target": "Death receptor 4 (DR4) on primary human pancreatic stellate cells (human) (UniProt O00220)", "experiment": "cell-based or functional assay", "data": [{"substance": "mapatumumab (human anti-DR4 antibody, Creative Biolabs)", "values": [{"measurement": "caspase-3/7 activity (apoptosis marker), culture-activated PSCs, 10^3 ng/mL", "result": 1.27, "unit": "fold"}]}]}
